Here are results for two substances from US20040120954A1, “Regulation of mt1-mmp activity” (priority 2000, published 2004).

For test [1], the target named is FLAG epitope-tagged MT1-MMP (MT1-F) (human) (UniProt P50281). The test is described as follows: binding of 25 nM 125I-labeled TIMP-2 to transfected CHO-K1 cells at 0 C, with and without BB-94.
Test [2] addresses Membrane-type 1 matrix metalloproteinase (MT1-MMP) (human) (UniProt P50281).
Test [3] deals with MT1-F/NGFR (chimera of the ectodomain of MT1-F with the transmembrane/cytoplasmic domain of NGFR) (human) (UniProt P50281). The test is described as follows: COS1 cells co-transfected with MT1-F/NGFR, Rac1DA and MT1PEX-F, PY20 Western blot (FIG. 24).
The target is the same in test [4]. The test is described as follows: competition with the dimer formation of MT1-F/NGFR in co-transfected COS1 cells, PY20 Western blot (FIG. 10). For orientation: In western blotting, separated proteins are transferred to a membrane and probed.

Take “Recombinant human TIMP-2 (tissue inhibitor of metalloproteinase-2) (from UniProt P16035)”: the decrease in TIMP-2 binding on the cell surface on co-transfection of MT1PEX-F, against MT1-F alone in test [1] is 37%.

The substance “Catalytic domain-deleted FLAG-tagged MT1-MMP (MT1PEX-F) (from UniProt P50281)” returned a Matrigel invasion by HT1080 cells (GFP-positive invading cells) in test [2] of 70%. In addition, the decrease of the phosphotyrosine signal of MT1-F/NGFR in test [3] amounted to 43%. This substance registered an inhibition of the phosphorylation of MT1-F/NGFR in test [4] of over 90%.
